Consider one substance from paper PMC3844517.

Holding throughout (test): co-IP
The target of experiment [1] is Plk4-EGFP A15 (Drosophila) (UniProt O97143).
In experiment [2] the target is Plk4-EGFP A16 (Drosophila) (UniProt O97143).
In experiment [3] the target is Plk4-EGFP A17 (Drosophila) (UniProt O97143).
Experiment [4] concerns the target Plk4-EGFP A18 (Drosophila) (UniProt O97143).
Experiment [5] has as its target Plk4-EGFP A19 (Drosophila) (UniProt O97143).
Experiment [6] concerns the target Plk4-EGFP A20 (Drosophila) (UniProt O97143).
Experiment [7] addresses Plk4-EGFP A26 (Drosophila) (UniProt O97143).

With “Slimb (F-box protein of the SCF ubiquitin ligase) (natural protein)”, the further fold decrease of Slimb binding (beyond A14) in experiment [1], in experiment [2], in experiment [3], in experiment [4], in experiment [5] and in experiment [6] was 2 fold in each case. The substance further displayed a fold reduction in the amount of associated Slimb in experiment [7] of 5 fold.
